Experimental data as given in CN111217911A (DONGGUAN PENGZHI BIO TECH CO LTD, dated 2020).

Target: T1, 人胃蛋白酶原II HPGII (fitzgerald, 30R-AP039) (human, UniProt P20142 17-388)
T1 construct: Bought antigen; also called PGⅡ; PGC
T1 sequence (looked up): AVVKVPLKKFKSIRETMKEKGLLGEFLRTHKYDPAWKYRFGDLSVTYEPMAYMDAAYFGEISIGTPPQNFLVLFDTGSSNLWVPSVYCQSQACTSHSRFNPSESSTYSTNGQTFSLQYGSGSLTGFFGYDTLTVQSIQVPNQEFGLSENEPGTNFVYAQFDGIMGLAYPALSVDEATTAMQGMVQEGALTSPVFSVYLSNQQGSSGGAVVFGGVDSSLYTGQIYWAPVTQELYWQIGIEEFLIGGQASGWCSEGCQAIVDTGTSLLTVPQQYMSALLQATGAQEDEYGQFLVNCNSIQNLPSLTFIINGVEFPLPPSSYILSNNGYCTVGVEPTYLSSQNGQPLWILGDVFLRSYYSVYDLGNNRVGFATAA
Assay: BLI, AMC sensor, antibody immobilised, HPGII in solution

B1: Anti-HPG II 11C2 重组抗体 (WT) (antibody, V domains shown)
VH: QIQLVQSGPELKKPGETVKISCKASGYSFTQHGMNWVKQAPGKGLKWMGWINSFTAQPTFADDFRGRFAFSLETSASTAYLQINNLKNEDMATYFCARRGENYIYYYAMDYWGQGTSVTVSS
VL: DVVVTQTPLSLPVSFGDQVSISCRSNQSIAQSYGNTYLSWYLHKPGQSPQLLIYGLSQRFSGVPDRFSGSGSGTDFTLKISTIKPEDLGMYYCLNGSHQPWTFGGGTKLEIK
- Kd: 5.15 nM
- koff: 0.00181 s⁻¹
- kon: 351000 M⁻¹ s⁻¹
